According to the Human Domainome abundance scans (Beltran et al. 2025):
± gives the uncertainty stated by the source.

B1: Membrane-associated guanylate kinase, WW and PDZ domain-containing protein 2, residues 601 to 682; numbered along this chain, Q86UL8 (parent)
chain: AELMTLTIVKGAQGFGFTIADSPTGQRVKQILDIQGCPGLCEGDLIVEINQQNVQNLSHTEVVDILKDCPIGSETSLIIHRG

Variants of: B1
Assay: abundance fitness (aPCA) (normalised: wild type 0, dead -1); higher = more abundant; growth selection in yeast, the domain comes from the species named
Conditions: Homo sapiens

Variant	abundance fitness
E2C	-0.039 ± 0.054
E2T	-0.034 ± 0.038
E2Y	-0.094 ± 0.064
E2S	-0.061 ± 0.034
E2A	-0.032 ± 0.034
E2P	-0.205 ± 0.043
E2R	-0.098 ± 0.032
E2N	0.009 ± 0.063
E2I	-0.139 ± 0.065
E2Q	-0.066 ± 0.042
E2F	-0.113 ± 0.059
E2G	-0.049 ± 0.034
E2K	-0.093 ± 0.046
E2L	-0.131 ± 0.035
E2M	-0.001 ± 0.044
E2H	-0.113 ± 0.053
E2V	-0.077 ± 0.038
E2W	-0.214 ± 0.046
G14A	-0.152 ± 0.036
G14C	-0.11 ± 0.038
G14D	0.07 ± 0.046
A12M	-0.034 ± 0.052
A12P	-0.043 ± 0.064

Variant	abundance fitness
A12C	-0.044 ± 0.056
A12F	-0.075 ± 0.072
A12N	-0.077 ± 0.07
A12K	-0.036 ± 0.059
A12Y	-0.119 ± 0.061
A12G	0.01 ± 0.032
A12I	-0.137 ± 0.065
A12E	-0.047 ± 0.041
A12L	-0.05 ± 0.039
A12Q	-0.037 ± 0.048
A12D	-0.02 ± 0.064
A12H	-0.209 ± 0.075
A12S	-0.046 ± 0.039
A12W	-0.057 ± 0.052
A12R	-0.029 ± 0.032
G11P	0.03 ± 0.056
G11N	0.017 ± 0.098
G11E	-0.118 ± 0.057
G11Q	-0.119 ± 0.059
G11D	0.01 ± 0.061
G11K	-0.09 ± 0.058
G11A	0.018 ± 0.046
G11R	-0.094 ± 0.038

Variant	abundance fitness
G11H	-0.142 ± 0.13
G11Y	-0.124 ± 0.082
G11M	-0.095 ± 0.062
G11F	-0.114 ± 0.1
G11I	-0.116 ± 0.062
G11T	-0.015 ± 0.052
G11L	-0.104 ± 0.039
G11W	-0.223 ± 0.054
G11V	0.027 ± 0.047
G11C	-0.146 ± 0.068
G11S	-0.023 ± 0.041
A1G	-0.113 ± 0.065
A1F	-0.589 ± 0.47
A1R	0.216 ± 0.31
A1W	-0.397 ± 0.35
A1V	0.093 ± 0.063
A1E	-0.024 ± 0.11
A1C	-0.015 ± 0.32
A1D	-0.198 ± 0.13
I8C	-0.008 ± 0.051
I8Q	-0.08 ± 0.043
I8P	-0.09 ± 0.046
I8G	-0.084 ± 0.027

Variant	abundance fitness
I8V	-0.002 ± 0.033
I8L	0.036 ± 0.036
I8K	-0.261 ± 0.056
I8Y	-0.012 ± 0.068
I8E	-0.52 ± 0.058
I8T	0.042 ± 0.051
I8S	-0.059 ± 0.037
I8R	-0.397 ± 0.033
I8A	-0.021 ± 0.038
I8F	0.046 ± 0.074
I8D	-1.07 ± 0.12
I8H	-0.113 ± 0.078
I8N	-0.282 ± 0.077
I8W	-0.063 ± 0.038
I8M	-0.053 ± 0.053
K10W	-0.446 ± 0.046
K10H	-0.14 ± 0.065
K10G	-0.125 ± 0.032
K10E	-0.662 ± 0.053
K10P	-0.146 ± 0.045
K10Q	-0.123 ± 0.042
K10R	-0.107 ± 0.03
K10V	-0.073 ± 0.034

Variant	abundance fitness
K10C	-0.192 ± 0.046
K10M	-0.102 ± 0.047
K10A	-0.108 ± 0.038
K10L	-0.239 ± 0.035
K10D	-1.29 ± 0.19
K10S	-0.143 ± 0.037
K10I	-0.185 ± 0.077
K10T	-0.182 ± 0.042
K10F	-0.372 ± 0.064
T7R	-0.052 ± 0.032
T7I	-0.013 ± 0.064
T7F	-0.017 ± 0.068
T7E	-0.133 ± 0.039
T7G	-0.168 ± 0.03
T7Q	-0.085 ± 0.048
T7K	0.002 ± 0.05
T7Y	-0.121 ± 0.075
T7L	-0.075 ± 0.036
T7S	-0.103 ± 0.037
T7N	0.044 ± 0.087
T7V	-0.126 ± 0.038
T7C	-0.027 ± 0.042
T7A	-0.008 ± 0.035

Variant	abundance fitness
T7P	-0.04 ± 0.046
T7M	-0.083 ± 0.059
Q13I	-0.218 ± 0.05
Q13V	-0.067 ± 0.036
Q13D	-0.062 ± 0.047
Q13T	-0.038 ± 0.036
Q13E	0.016 ± 0.046
Q13C	-0.06 ± 0.052
Q13M	-0.104 ± 0.04
Q13P	-0.001 ± 0.04
Q13H	-0.161 ± 0.07
Q13F	-0.084 ± 0.043
Q13S	-0.027 ± 0.033
Q13A	-0.037 ± 0.039
Q13Y	-0.096 ± 0.057
Q13W	-0.101 ± 0.044
Q13G	0 ± 0.036
Q13K	-0.06 ± 0.039
Q13R	-0.017 ± 0.033
